# Results reported in patent US20200038441A1 (NANTKWEST, published 2020).
# Target: PD-L1 on SUP-B15 PD-L1+ cells (UniProt Q9NZQ7 19-290, limits assumed)
# Test: cell-based or functional assay
# Chain of PD-L1 on SUP-B15 PD-L1+ cells (Q9NZQ7 19-290 limits assumed): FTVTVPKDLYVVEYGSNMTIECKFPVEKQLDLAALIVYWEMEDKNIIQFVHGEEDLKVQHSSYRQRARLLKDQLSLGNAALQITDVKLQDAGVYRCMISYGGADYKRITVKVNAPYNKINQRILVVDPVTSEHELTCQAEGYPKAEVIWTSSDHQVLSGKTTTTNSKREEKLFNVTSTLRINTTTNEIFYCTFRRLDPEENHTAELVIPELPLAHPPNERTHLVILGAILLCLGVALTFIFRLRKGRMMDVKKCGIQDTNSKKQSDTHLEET
binder,measurement,value
PD-L1 CAR expressed on aTGFβ/PD-L1 t-haNK cells (other) MDWIWRILFLVGAATGAHSAQPANIQMTQSPSSVSASVGDRVTITCRASQDISRWLAWYQQKPGKAPKLLIYAASSLQSGVPSRFSGSGSGTDFALTISSLQPEDFATYYCQQADSRFSITFGQGTRLEIKGGGGSGGGGSGGGGSGGGGSEVQLVQSGGGLVQPGGSLRLSCAASGFTFSSYSMNWVRQAPGKGLEWVSYISSSSSTIQYADSVKGRFTISRDNAKNSLYLQMNSLRDEDTAVYYCARGDYYYGMDVWGQGTTVTVSSAAALSNSIMYFSHFVPVFLPAKPTTTPAPRPPTPAPTIASQPLSLRPEACRPAAGGAVHTRGLDFACFWVLVVVGGVLACYSLLVTVAFIIFWVRLKIQVRKAAITSYEKSDGVYTGLSTRNQETYETLKHEKPPQ,"specific killing of SUP-B15 PD-L1+ target cells, 4 h cytotoxicity assay, effector to target ratio of 8",~70%
